Results on 28 molecules are retold here after patent US20110262445A1 (CEPHALON AUSTRALIA, published 2011).

First the molecules themselves.
T1: human IL-23 (human, UniProt P29460 23-328; Q9NPF7 20-189)
T1 construct: Recombinant (Ebioscience); HIS-tagged in flow cytometry, biotinylated in some assays; also called hIL-23; rhIL-23
T1 sequence 1: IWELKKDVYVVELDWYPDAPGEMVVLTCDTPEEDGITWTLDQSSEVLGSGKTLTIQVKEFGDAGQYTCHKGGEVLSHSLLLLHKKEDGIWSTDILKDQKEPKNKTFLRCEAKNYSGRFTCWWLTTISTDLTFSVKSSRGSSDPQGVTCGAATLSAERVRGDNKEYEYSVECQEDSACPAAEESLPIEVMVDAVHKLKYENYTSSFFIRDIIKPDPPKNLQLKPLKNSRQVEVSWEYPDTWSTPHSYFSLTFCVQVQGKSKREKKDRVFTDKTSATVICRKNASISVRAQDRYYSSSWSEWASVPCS
T1 sequence 2: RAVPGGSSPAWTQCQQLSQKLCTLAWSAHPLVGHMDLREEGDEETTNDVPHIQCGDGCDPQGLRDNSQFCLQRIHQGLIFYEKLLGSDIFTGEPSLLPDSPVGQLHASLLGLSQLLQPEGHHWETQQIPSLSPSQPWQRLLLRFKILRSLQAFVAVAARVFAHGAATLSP

T2: human IL-12 (human, UniProt P29460 23-328; P29459 23-219)
T2 construct: Recombinant (Peprotech); FLAG-tagged IL-12 in the flow cytometry assays, biotinylated in the IL-12Rβ2 assay; also called hIL-12
T2 sequence 1: T1 sequence 1
T2 sequence 2: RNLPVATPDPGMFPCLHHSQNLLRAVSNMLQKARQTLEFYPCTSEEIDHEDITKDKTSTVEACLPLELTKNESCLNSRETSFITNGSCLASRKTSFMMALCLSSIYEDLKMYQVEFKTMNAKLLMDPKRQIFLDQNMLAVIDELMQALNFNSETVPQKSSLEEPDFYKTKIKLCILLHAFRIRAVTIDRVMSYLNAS

B1: Antibody 94 (antibody, human IgG1, kappa, V domains shown)
VH: EVQLVQSGAEVKKPGATVKISCKASGYTFSDYYLHWVRQAPEKGLEWMGWIDPENGDTEYAPKFQGRVTITADTSTDTGYLELSSLRSEDTAVYYCNRNKELRYFDVWGQGTLVTVSS
VL: DIQMTQSPSSVSASVGDRVTITCRASQSISINLHWYQQKPGKAPKLLIYFASQSISGVPSRFSGSGSGTDFSLTINSLQPEDFARYYCQQSNSFPLTFGGGTKVEIKR
B2: Antibody 121 (antibody, human IgG1, kappa, V domains shown)
VH: B1 VH with S84R, N97A, R98A
VL: B1 VL
B3: Antibody 120 (antibody, human IgG1, kappa, V domains shown)
VH: B1 VH with E82Q, N97A, R98A
VL: B1 VL
B4: Antibody 100 (antibody, human IgG1, kappa)
heavy chain: not shown
light chain: DIQMTQSPSSVSASVGDRVTITCRASQSISINLHWYQQKPGKAPKLLIYFASQSISGVPSRFSGSGSGTDFSLTINSLQPEDFARYYCQQSNSFPLTFGGGTKVEIKRTVAAPSVFIFPPSDEQLKSGTASVVCLLNNFYPREAKVQWKVDNALQSGNSQESVTEQDSKDSTYSLSSTLTLSKADYEKHKVYACEVTHQGLSSPVTKSFNRGEC
B5: Antibody 109 (antibody, human IgG1, kappa, V domains shown)
VH: B1 VH with S30K, N97A, R98A
VL: B1 VL
B6: Antibody 103 (antibody, human IgG1, kappa)
heavy chain: not shown
light chain: B4 light chain
B7: Antibody 113 (antibody, human IgG1, kappa, V domains shown)
VH: B1 VH with V68A, N97A, R98A
VL: B1 VL
B8: Antibody 119 (antibody, human IgG1, kappa, V domains shown)
VH: B1 VH with L81M, N97A, R98A
VL: B1 VL
B9: Antibody 99 (antibody, human IgG1, kappa)
heavy chain: not shown
light chain: B4 light chain
B10: Antibody 97 (antibody, human IgG1, kappa)
heavy chain: not shown
light chain: B4 light chain
B11: Antibody 118 (antibody, human IgG1, kappa, V domains shown)
VH: B1 VH with G79A, N97A, R98A
VL: B1 VL
B12: Antibody 102 (antibody, human IgG1, kappa)
heavy chain: not shown
light chain: B4 light chain
B13: Antibody 101 (antibody, human IgG1, kappa)
heavy chain: not shown
light chain: B4 light chain
B14: Antibody 108 (antibody, human IgG1, kappa, V domains shown)
VH: B1 VH with F29I, N97A, R98A
VL: B1 VL
B15: Antibody 123 (antibody, human IgG1, kappa, V domains shown)
VH: B1 VH with E89D, N97A, R98A
VL: B1 VL
B16: Antibody 104 (antibody, human IgG1, kappa)
heavy chain: not shown
light chain: B4 light chain
B17: Antibody 116 (antibody, human IgG1, kappa, V domains shown)
VH: B1 VH with T76S, N97A, R98A
VL: B1 VL
B18: Antibody 107 (antibody, human IgG1, kappa, V domains shown)
VH: B1 VH with T28N, N97A, R98A
VL: B1 VL
B19: Antibody 98 (antibody, human IgG1, kappa)
heavy chain: not shown
light chain: B4 light chain
B20: Antibody 105 (antibody, human IgG1, kappa, V domains shown)
VH: B1 VH with K23T, N97A, R98A
VL: B1 VL
B21: Antibody 115 (antibody, human IgG1, kappa, V domains shown)
VH: B1 VH with A72T, N97A, R98A
VL: B1 VL
B22: Antibody 117 (antibody, human IgG1, kappa, V domains shown)
VH: B1 VH with D77N, N97A, R98A
VL: B1 VL
B23: Antibody 106 (antibody, human IgG1, kappa, V domains shown)
VH: B1 VH with Y27F, N97A, R98A
VL: B1 VL
B24: Antibody 114 (antibody, human IgG1, kappa, V domains shown)
VH: B1 VH with I70M, N97A, R98A
VL: B1 VL
B25: Antibody 122 (antibody, human IgG1, kappa, V domains shown)
VH: B1 VH with R87T, N97A, R98A
VL: B1 VL
B26: Antibody 112 (antibody, human IgG1, kappa, V domains shown)
VH: B1 VH with M48I, N97A, R98A
VL: B1 VL
B27: Antibody 110 (antibody, human IgG1, kappa, V domains shown)
VH: B1 VH with R38K, N97A, R98A
VL: B1 VL
B28: Antibody 124 (antibody, human IgG1, kappa)
heavy chain: not shown
light chain: B4 light chain

Positions count from the first letter of the chain named.

In one assay the target is T1, human IL-23. As to the kind of experiment: ELISA, coated IL-23. The gist of the method: (§1)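 Each value is an absorbance measuring binding. Plates (Maxisorp) carried cytokine coated at 1 μg/mL in carbonate buffer pH 9.6 overnight at 4° C, were blocked with 1% BSA in PBS for 1 hour at 25° C, and received antibody titrations for 1 hour at 25° C. Detection used goat anti-human IgG or anti-murine immunoglobulin HRP at 1:2000 for 1 hour, then TMB stopped with 1M HCl, with absorbance taken at 450 nm (reference 620 nm).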
Background: An ELISA detects its analyte on a solid surface through an enzyme-linked reagent.
As for B1, the binding result is listed as “binds”.
Still for that read-out and setting: the same measure for B2: “binds”; for B3: “binds”.
As to B4, the binding result is given as “binds”.
For the molecule B5, the binding result is listed as “binds”.
As to B6, the binding result is listed as “binds”.
Turning to B7, the binding result is listed as “binds”.
Take B8: the binding result is “binds”.
On to B9, for which the binding result is on record as “binds”.
For the molecule B10, the binding result is on record as “binds”.
Regarding B11, the binding result was “binds”.
In the case of B12, the binding result is “binds”.
The same measure, in the same setting: the value for B13 was “binds”; that for B14 was “binds”; that for B15 was “binds”.
Regarding B16, the binding result is given as “binds”.
Regarding B17, the binding result is “binds”.
The same measure, in the same setting: the value for B18 was “binds”.
As for B19, the binding result is reported as “binds”.
On to B20, for which the binding result is recorded as “binds”.
Regarding B21, the binding result is on record as “binds”.
For B22, the binding result was “binds”.
As to B23, the binding result is on record as “binds”.
As for B24, the binding result is given as “binds”.
Still for that read-out and setting: the same measure for B25: “binds”; for B26: “binds”.
Regarding B27, the binding result is on record as “binds”.
Turning to B28, the binding result is “binds”.

Another assay deals with T2, human IL-12. As to the kind of experiment: ELISA, coated IL-12. The gist of the method: as §1
On to B1, for which the binding result is listed as “no binding (tested: not given)”.
As for B2, the binding result is “binds”.
As to B3, the binding result was “binds”.
The same measure, in the same setting: the value for B4 was “binds”; that for B5 was “binds”.
In the case of B6, the binding result is recorded as “binds”.
As to B7, the binding result is recorded as “binds”.
On to B8, for which the binding result is listed as “binds”.
In the case of B9, the binding result is recorded as “binds”.
For the molecule B10, the binding result is recorded as “binds”.
With B11, the binding result was “binds”.
Regarding B12, the binding result is “binds”.
With B13, the binding result is “binds”.
Regarding B14, the binding result was “binds”.
With B15, the binding result is recorded as “binds”.
Same read-out and setting: the value for B16 was “binds”; that for B17 was “binds”.
On the same count and under the same terms, the same measure for B18: “binds”.
As to B19, the binding result is “binds”.
Consider B20, for which the binding result was “binds”.
Take B21: the binding result was “binds”.
As to B22, the binding result is “binds”.
Same read-out and setting: the value for B23 was “binds”; that for B24 was “binds”; that for B25 was “binds”.
With B26, the binding result was “binds”.
In the case of B27, the binding result was “binds”.
As for B28, the binding result was “binds”.
